Experimental data: paper PMC9676403, “Crystal structure of the collagen prolyl 4-hydroxylase (C-P4H) catalytic domain complexed with PDI: Toward a model of the C-P4H α2β2 tetramer” (The Journal of Biological Chemistry, 2022)

B1: protein disulfide isomerase, the β-subunit of C-P4H (enzyme)
chain: not shown
notes: protein disulfide isomerase, human, called the intact or complete β/PDI subunit, without a tag; codon-optimized gene; the crystal model starts at Glu21; Made in the E. coli cytoplasm, so probably without the signal peptide (my surmise); also called PDI; β/PDI subunit; source: E. coli K12, polycistronic CyDisCo plasmid, coexpressed with the α-subunit and yeast Erv1; co-purified with the His-tagged …
B4: α-subunit of mature human C-P4H-II (enzyme, UniProt O15460-1 22-535, looked up)
chain: EFFTSIGHMTDLIYAEKELVQSLKEYILVEEAKLSKIKSWANKMEALTSKSAADAEGYLAHPVNAYKLVKRLNTDWPALEDLVLQDSAAGFIANLSVQRQFFPTDEDEIGAAKALMRLQDTYRLDPGTISRGELPGTKYQAMLSVDDCFGMGRSAYNEGDYYHTVLWMEQVLKQLDAGEEATTTKSQVLDYLSYAVFQLGDLHRALELTRRLLSLDPSHERAGGNLRYFEQLLEEEREKTLTNQTEAELATPEGIYERPVDYLPERDVYESLCRGEGVKLTPRRQKRLFCRYHHGNRAPQLLIAPFKEEDEWDSPHIVRYYDVMSDEEIERIKEIAKPKLARATVRDPKTGVLTVASYRVSKSSWLEEDDDPVVARVNRRMQHITGLTVKTAELLQVANYGVGGQYEPHFDFSRNDERDTFKHLGTGNRVATFLNYMSDVEAGGATVFPDLGAAIWPKKGTAVFWYNLLRSGEGDYRTRHAACPVLVGCKWVSNKWFHERGQEFLRPCGSTEVD
notes: collagen prolyl 4-hydroxylase α(II) subunit, human, isoform-IIb splice variant (exon 12b); the complex is called mature C-P4H-II; codon-optimized gene; also called α(II); Hs-α(II); source: E. coli K12, polycistronic CyDisCo plasmid, coexpressed with β/PDI and yeast Erv1; purified (Talon IMAC, HiTrap Q, Superdex 200); not shown: His6, N-terminal, kept

How the values were obtained:
[1] = target: B4; assay: co-purification; His6-tagged α-subunit coexpressed with untagged β/PDI in E. coli (CyDisCo); Talon IMAC from the lysate, HiTrap Q, Superdex 200, 4 °C, Tris pH 7.8; subunits found in the purified sample by SDS-PAGE and MS; settings: partners not purified
[2] = target: B1; assay: as above; settings: partners not purified
[3] = target: B1; assay: SEC-MALS; purified, frozen-thawed co-expressed complex on Superdex 200 Increase 10/300 GL in SEC buffer (50 mM Tris, pH 7.8, 50 mM NaCl, 100 mM glycine); settings: both partners purified
[4] = target: the molecule itself; assay: as above

B1: binds [1].

B2: α-subunit of human C-P4H-II lacking the N-terminal dimerization domain, construct C-P4H-II-Δ140 (domain or fragment, UniProt O15460-1 141-535, looked up)
chain: DTYRLDPGTISRGELPGTKYQAMLSVDDCFGMGRSAYNEGDYYHTVLWMEQVLKQLDAGEEATTTKSQVLDYLSYAVFQLGDLHRALELTRRLLSLDPSHERAGGNLRYFEQLLEEEREKTLTNQTEAELATPEGIYERPVDYLPERDVYESLCRGEGVKLTPRRQKRLFCRYHHGNRAPQLLIAPFKEEDEWDSPHIVRYYDVMSDEEIERIKEIAKPKLARATVRDPKTGVLTVASYRVSKSSWLEEDDDPVVARVNRRMQHITGLTVKTAELLQVANYGVGGQYEPHFDFSRNDERDTFKHLGTGNRVATFLNYMSDVEAGGATVFPDLGAAIWPKKGTAVFWYNLLRSGEGDYRTRHAACPVLVGCKWVSNKWFHERGQEFLRPCGSTEVD
notes: collagen prolyl 4-hydroxylase α(II) subunit, human, isoform-IIb splice variant (exon 12b), first 140 residues deleted, starts at Asp141; holds the PSB and CAT domains; codon-optimized gene; also called PSB and CAT; Hs-α(II) from D141; source: E. coli K12, polycistronic CyDisCo plasmid, coexpressed with β/PDI and yeast Erv1; purified (Talon IMAC, HiTrap Q, Superdex 200); not shown: His6, …
B2: binds [2].

B3: α-subunit of human C-P4H-II truncated to the catalytic (CAT) domain, construct C-P4H-II-Δ281 (domain or fragment, UniProt O15460-1 282-535, looked up)
chain: DYLPERDVYESLCRGEGVKLTPRRQKRLFCRYHHGNRAPQLLIAPFKEEDEWDSPHIVRYYDVMSDEEIERIKEIAKPKLARATVRDPKTGVLTVASYRVSKSSWLEEDDDPVVARVNRRMQHITGLTVKTAELLQVANYGVGGQYEPHFDFSRNDERDTFKHLGTGNRVATFLNYMSDVEAGGATVFPDLGAAIWPKKGTAVFWYNLLRSGEGDYRTRHAACPVLVGCKWVSNKWFHERGQEFLRPCGSTEVD
notes: residues 534-535 are named as the C-terminal residues; codon-optimized gene; Linked to PDI in the crystal by intersubunit disulfide bridges (Cys311-Cys397, Cys529-Cys53); also called Hs-α(II) from D282; source: E. coli K12, polycistronic CyDisCo plasmid, coexpressed with β/PDI and yeast Erv1; purified (Talon IMAC, HiTrap Q, Superdex 200)
B3: binds [3].

B4: binds [4].
